Measurements: patent publication US20060177432A1 (Novartis, published 2006)

What was measured:
human α-thrombin = human α-thrombin (human, UniProt P00734 328-622); experiment: chromogenic substrate hydrolysis at varied substrate and PEBP-H6 concentrations, fitted to the equation for a competitive inhibitor
Method: (§1) Six different serine proteases were diluted in enzyme buffer (67 mM Tris, pH 8.0, 133 mM NaCl, 0.13% PEG-6000) and used in protease activity assays with the following final amounts: thrombin, trypsin and chymotrypsin, 0.005 pmol; t-PA and neuropsin, 0.5 pmol; and pancreatic elastase, 4 pmol. Human α-thrombin was prepared and according to Stone et al. (Stone, S. R. and Hofsteenge, J. (1986) Biochemistry 25, 46224628); all other proteases are commercially available (e.g., Sigma, Fluka). […] The pre-incubation was carried out in a 96-well plate for 30 min at 37° C. After addition of 10 μl chromogenic protease substrate (H-D-Ile-Pro-Arg-para-nitroanilide, Chromogenix, 1.25 mg/ml in H₂O for all proteases other than chymotrypsin; or N-Succinyl-Ala-Ala-Pro-Phe-para-nitroanilide, Sigma, 2.3 mg/ml in H₂O for chymotrypsin), any remaining amidolytic activity was determined by measuring the rate of hydrolysis of the chromogenic substrate at 405 nm over 30 min using a THERMOmax microplate reader (Molecular Devices). […]
(§2) To determine the inhibition constants, the rates for the hydrolysis of the chromogenic substrates were measured as described above at fixed enzyme concentrations and substrate concentrations ranging from 3.5 μM to 216 μM and PEBP-H6 concentrations between 0 and 2.9 μM. […]

chymotrypsin = experiment: as above
Method: as §1, §2

B1: PEBP-H6 (mouse PEBP with a stretch of six histidine residues fused to the carboxy-terminus) (other)
chain: AADISQWAGPLCLQEVDEPPQHALRVDYAGVTVDELGKVLTPTQVMNRPSSISWDGLDPGKLYTLVLTDPDAPSRKDPKFREWHHFLVVNMKGNDISSGTVLSDYVGSGPPSGTGLHRYVWLVYEQEQPLSCDEPILSNKSGDNRGKFKVETFRKKYNLGAPVAGTCYQAEWDDYVPKLYEQLSGKHHHHHH
notes: Expressed in Rat-1 cells and purified on Ni-NTA
For B1, the Ki (human α-thrombin) was 380 nM and the Ki (chymotrypsin) was 1800 nM.
